T1: mouse PL scramblase (Mus musculus, UniProt Q9DCW2)
T1 construct: made in house; host or cells: E. coli TB1 (pMAL-C2)
T1 sequence (Q9DCW2 1-307): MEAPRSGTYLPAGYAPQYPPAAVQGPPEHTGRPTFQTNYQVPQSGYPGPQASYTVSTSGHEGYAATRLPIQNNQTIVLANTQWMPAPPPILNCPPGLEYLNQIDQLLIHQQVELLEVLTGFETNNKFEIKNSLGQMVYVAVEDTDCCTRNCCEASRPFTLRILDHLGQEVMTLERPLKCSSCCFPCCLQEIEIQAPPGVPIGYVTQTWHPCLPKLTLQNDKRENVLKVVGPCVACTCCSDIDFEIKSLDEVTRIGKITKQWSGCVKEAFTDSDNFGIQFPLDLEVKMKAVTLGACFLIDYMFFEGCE


Experiments:
mouse PL scramblase = target: T1, mouse PL scramblase; assay: PL scramblase activity of recombinant mouse protein in reconstituted PC/PS proteoliposomes; format: biochemical; settings: 420 pmoles protein, 1 μmol PL
Protocol: Expression and Purification of Mouse PL Scramblase-MBP Fusion Protein: Mouse PL scramblase was expressed as fusion protein with MBP in E. coli TB1 and purified on amylose resin as previously described for human PL scramblase (Q. Zhou, et al., J. Biol. Chem. 272:18240-18244, 1997). The purified fusion protein was centrifuged at 106,000×g for 1 hour at 4° C. to remove aggregated protein.
(§1) Reconstitution and Functional Activity of PL Scramblase: Reconstitution, removal of MBP, and functional assay of PL scramblase were performed as previously described (F. Bassé, et al., J. Biol. Chem. 271:17205-17210, 1996; Q. Zhou, et al., supra, 1997; J. G. Stout, et al., J. Clin. Invest. 99:2232-2238, 1997). Routinely, 420 pmoles of protein were reconstituted with 1 μmol of PL. To remove MBP, proteoliposomes were incubated 3 hours at room temperature with 1/40 (w/w) factor Xa. The digest was terminated by addition of 100 μM Glu-Gly-Arg chloromethyl ketone. Proteoliposomes labeled with NBD-PC were incubated for 2 hours at 37° C. in Tris buffer in the presence or absence of CaCl2 as indicated in figure legends and diluted 25-fold in Tris buffer containing 4 mM EGTA. Initial fluorescence was recorded (SLM Aminco 8000 spectrofluorimeter; excitation at 470 nm, emission at 532 nm), 20 mM dithionite was added, and the fluorescence was continuously monitored for a total of 120 seconds. Scramblase activity was calculated according to the difference in non-quenchable fluorescence observed in presence vs absence of CaCl2. Ionized [Ca^2+] was calculated using FreeCal version 4.0 software (generously provided by Dr. Lawrence F. Brass, University of Pennsylvania, Philadelphia, Pa.).
Functional Activity of Recombinant Mouse PL Scramblase. In order to confirm that the cDNA identified as mouse PL scramblase encodes a protein of similar function to that identified in human, the human and mouse proteins were each expressed in E. coli, purified, and reconstituted in proteoliposomes for measurement of PL mobilizing activity. Mouse or human PL scramblase-MBP fusion protein (420 pmoles) was reconstituted into PC/PS liposomes (1 μmol total PL), respectively, MBP was removed by digestion of the proteoliposomes with factor Xa, and PL scramblase activity was determined as described under “Experimental Procedures” and plotted as a function of external free [Ca^2+]. The results of this experiment indicate that recombinant mouse PL scramblase mediated a Ca^2+-dependent transbilayer movement of membrane PL with a specific activity and affinity for Ca^2+ indistinguishable from that observed for the recombinant human protein.

human PL scramblase = assay: PL scramblase activity: Ca2+-dependent transbilayer movement of NBD-PC in reconstituted PC/PS proteoliposomes; format: biochemical; settings: for apparent avidity for Ca2+ of mutant human PL scramblase: activity as function of external free [Ca2+]; for PL scramblase function of Ala-substituted mutants of the EF-hand loop vs wild type: mutant human PL scramblase, 2 mM CaCl2
Protocol: Reconstitution of PL scramblase or scramblase fusion protein into proteoliposomes. Reconstitution and functional activity were performed essentially as previously described (F. Bassé, et al., J. Biol. Chem. 271:17205-17210, 1996; J. G. Stout, et al., J. Clin. Invest. 99:2232-2238, 1997). Briefly, a mixture of PC and PS (9:1 molar ratio) was dried under a stream of nitrogen and resuspended in 100 mM Tris, 100 mM KCl, 0.1 mM EGTA, pH 7.4 (Tris buffer). Protein samples to be reconstituted were added to the liposomes at a final lipid concentration of 4 mg/ml in the presence of 60 mM OG, and dialyzed overnight at 4° C. against 200 vol of Tris buffer containing 1 g/L Bio-Beads SM-2. To liberate PL scramblase from MBP, the proteoliposomes were incubated 3 h at room temperature in the presence of 1/40 (w/w) factor Xa. The digestion was terminated by addition of 100 μM Glu-Gly-Arg chloromethyl ketone. Completeness of the digest was monitored by SDS-PAGE. Following dialysis, the proteoliposomes were labeled in the outer leaflet by addition of 0.25 mol % fluorescent NBD-PC (in dimethyl sulfoxide, final solvent concentration 0.25%).
PL Scramblase activity. Scramblase activity was measured as previously described (F. Bassé, et al., supra, 1996; J. G. Stout, et al., supra, 1997 and in U.S. Ser. No. 08/790,186). Routinely, proteoliposomes labeled with NBD-PC were incubated for 2 hours at 37° C. in Tris buffer in the presence or absence of 2 mM CaCl2. Proteoliposomes were diluted 25-fold in Tris buffer containing 4 mM EGTA and transferred to a stirred fluorescence cuvet at 23° C. Initial fluorescence was recorded (SLM Aminco 8000 spectrof luorimeter; excitation at 470 nm, emission at 532 nm), 20 mM dithionite was added, and the fluorescence continuously monitored for a total of 120 seconds. The difference in non-quenchable fluorescence observed in presence vs. absence of CaCl2 Was attributed to Ca^2+-induced change in NBD-PC located in the outer leaflet (F. Bassé, et al., supra, 1996; J. G. Stout, et al., supra, 1997; J. C. McIntyre and R.G. Sleight, Biochemistry 30:11819-11827, 1991). Ionized [Ca^2+] was calculated using FreeCal version 4.0 software (generously provided by Dr. Lawrence F. Brass, University of Pennsylvania, Philadelphia, Pa.).
as §1
Mutagenesis of PL Scramblase: Human PL scramblase amino acid residues in EF-hand Ca^2+-binding motif at positions of Asp^273, Asp^275, Phe^277, Ile^279, Phe^281 and Asp^284 were mutated to Ala with oligonucleotide-directed mutagenesis by two rounds of PCR. […]

Row | affinity for Ca2+ compared with recombinant human protein (mouse PL scramblase) | affinity for Ca2+ compared with recombinant human protein (mouse PL scramblase; listed as murine PL scramblase) | apparent avidity for Ca2+ of mutant human PL scramblase (human PL scramblase) | PL scramblase function of Ala-substituted mutants of the EF-hand loop vs wild type (human PL scramblase) | Molecule | specific activity (Ca2+-dependent transbilayer movement of membrane PL) compared with recombinant human protein (mouse PL scramblase) | specific activity (Ca2+-dependent transbilayer movement of membrane PL) compared with recombinant human protein (mouse PL scramblase; listed as murine PL scramblase)
1 | indistinguishable | virtually the same |  |  | recombinant mouse PL scramblase: Recombinant murine PL scramblase (SEQ ID NO:4), 307 residues, expressed in E. coli (protein, listed as Mus musculus) MEAPRSGTYLPAGYAPQYPPAAVQGPPEHTGRPTFQTNYQVPQSGYPGPQASYTVSTSGHEGYAATRLPIQNNQTIVLANTQWMPAPPPILNCPPGLEYLNQIDQLLIHQQVELLEVLTGFETNNKFEIKNSLGQMVYVAVEDTDCCTRNCCEASRPFTLRILDHLGNEVMTLERPLRCSSCCFPCCLQEIEIQAPPGVPIGYVTQTWHPCLPKLTLQNDLRENVLKVVGPCVACTCCSDISFEIKSLDEVTRIGLITLQWSGCVLEAFTDSDNFGIQFPLDLEVKMKAVTLGACFLIDYMFFEGCE | indistinguishable | the same activity
2 |  |  | significant reduction | partial loss of function | Asp284: Mutant human PL scramblase with Ala substitution at Asp284 (EF-hand loop position 12) (protein, UniProt O15162 1-318, looked up, variant D284A) Phospholipid scramblase 1: MDKQNSQMNASHPETNLPVGYPPQYPPTAFQGPPGYSGYPGPQVSYPPPPAGHSGPGPAGFPVPNQPVYNQPVYNQPVGAAGVPWMPAPQPPLNCPPGLEYLSQIDQILIHQQIELLEVLTGFETNNKYEIKNSFGQRVYFAAEDTDCCTRNCCGPSRPFTLRIIDNMGQEVITLERPLRCSSCCCPCCLQEIEIQAPPGVPIGYVIQTWHPCLPKFTIQNEKREDVLKISGPCVVCSCCGDVDFEIKSLDEQCVVGKISKHWTGILREAFTDADNFGIQFPLALDVKMKAVMIGACFLIDFMFFESTGSQEQKSGVW |  | 

The remaining lines, values behind:

Row | Molecule | affinity for Ca2+ compared with recombinant human protein (mouse PL scramblase) | affinity for Ca2+ compared with recombinant human protein (mouse PL scramblase; listed as murine PL scramblase) | apparent avidity for Ca2+ of mutant human PL scramblase (human PL scramblase) | PL scramblase function of Ala-substituted mutants of the EF-hand loop vs wild type (human PL scramblase) | specific activity (Ca2+-dependent transbilayer movement of membrane PL) compared with recombinant human protein (mouse PL scramblase) | specific activity (Ca2+-dependent transbilayer movement of membrane PL) compared with recombinant human protein (mouse PL scramblase; listed as murine PL scramblase)
3 | Asp275: Mutant human PL scramblase with Ala substitution at Asp275 (EF-hand loop position 3) (protein, UniProt O15162 1-318, looked up, variant D275A) Phospholipid scramblase 1: MDKQNSQMNASHPETNLPVGYPPQYPPTAFQGPPGYSGYPGPQVSYPPPPAGHSGPGPAGFPVPNQPVYNQPVYNQPVGAAGVPWMPAPQPPLNCPPGLEYLSQIDQILIHQQIELLEVLTGFETNNKYEIKNSFGQRVYFAAEDTDCCTRNCCGPSRPFTLRIIDNMGQEVITLERPLRCSSCCCPCCLQEIEIQAPPGVPIGYVIQTWHPCLPKFTIQNEKREDVLKISGPCVVCSCCGDVDFEIKSLDEQCVVGKISKHWTGILREAFTDAANFGIQFPLDLDVKMKAVMIGACFLIDFMFFESTGSQEQKSGVW |  |  | significant reduction | complete inactivation |  | 
4 | Asp273: Mutant human PL scramblase with Ala substitution at Asp273 (EF-hand loop position 1) (protein, listed as Homo sapiens) MDKQNSQMNASHPETNLPVGYPPQYPPTAFQGPPGYSGYPGPQVSYPPPPAGHSGPGPAGFPVPNQPVYNQPVYNQPVGAAGVPWMPAPQPPLNCPPGLEYLSQIDQILIHQQIELLEVLTGFETNNKYEIKNSFGQRVYFAAEDTDCCTRNCCGPSRPFTLRIIDNMGQEVITLERPLRCSSCCCPCCLQEIEIQAPPGVPIGYVIQTWHPCLPKFTIQNEKREDVLKISGPCVVCSCCGDVDFEIKSLDEQCVVGKISKHWTGILREAFTAADNFGIQFPLDLDVKMKAVMIGACFLIDFMFFESTGSQEQKSGVW |  |  | significant reduction | partial loss of function |  | 

From patent US6534640B1, “Methods and compositions to alter the cell surface expression of phosphatidylserine and other clot-promoting plasma membrane phospholipids” (Blood Center Research Foundation, priority 1996, dated 2003)
